For this experiment, the target named is IIbIIIa receptor on human platelets (human) (UniProt P08514).
UniProt P08514, sequence (P08514 32-1039, chain 1 of 2): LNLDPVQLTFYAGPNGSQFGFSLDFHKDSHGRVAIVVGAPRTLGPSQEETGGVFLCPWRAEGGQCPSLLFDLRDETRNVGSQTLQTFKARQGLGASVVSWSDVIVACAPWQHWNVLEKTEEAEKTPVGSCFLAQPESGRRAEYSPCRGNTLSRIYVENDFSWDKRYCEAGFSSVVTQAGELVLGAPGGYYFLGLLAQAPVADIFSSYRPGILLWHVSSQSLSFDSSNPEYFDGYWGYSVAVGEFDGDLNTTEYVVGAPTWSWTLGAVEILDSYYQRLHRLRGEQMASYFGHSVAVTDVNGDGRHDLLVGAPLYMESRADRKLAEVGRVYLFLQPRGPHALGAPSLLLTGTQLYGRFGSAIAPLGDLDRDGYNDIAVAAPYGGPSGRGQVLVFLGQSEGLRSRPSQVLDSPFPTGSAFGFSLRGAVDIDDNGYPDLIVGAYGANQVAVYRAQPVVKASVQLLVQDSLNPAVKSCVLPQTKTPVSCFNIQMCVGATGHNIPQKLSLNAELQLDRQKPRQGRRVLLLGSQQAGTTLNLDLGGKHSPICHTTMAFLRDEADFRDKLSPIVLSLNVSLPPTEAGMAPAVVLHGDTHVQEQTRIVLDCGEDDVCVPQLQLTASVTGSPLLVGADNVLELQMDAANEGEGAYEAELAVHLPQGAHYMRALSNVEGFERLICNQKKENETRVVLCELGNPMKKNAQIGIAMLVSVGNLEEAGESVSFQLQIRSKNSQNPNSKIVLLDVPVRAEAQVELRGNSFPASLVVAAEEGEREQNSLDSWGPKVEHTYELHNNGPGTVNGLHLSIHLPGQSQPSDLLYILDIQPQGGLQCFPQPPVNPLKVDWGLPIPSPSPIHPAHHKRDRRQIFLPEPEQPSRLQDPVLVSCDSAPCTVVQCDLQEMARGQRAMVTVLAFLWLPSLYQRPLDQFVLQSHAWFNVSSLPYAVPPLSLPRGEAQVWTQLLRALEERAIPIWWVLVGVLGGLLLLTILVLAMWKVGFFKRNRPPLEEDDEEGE
UniProt P08514, sequence (P05106 27-788, chain 2 of 2, further chain): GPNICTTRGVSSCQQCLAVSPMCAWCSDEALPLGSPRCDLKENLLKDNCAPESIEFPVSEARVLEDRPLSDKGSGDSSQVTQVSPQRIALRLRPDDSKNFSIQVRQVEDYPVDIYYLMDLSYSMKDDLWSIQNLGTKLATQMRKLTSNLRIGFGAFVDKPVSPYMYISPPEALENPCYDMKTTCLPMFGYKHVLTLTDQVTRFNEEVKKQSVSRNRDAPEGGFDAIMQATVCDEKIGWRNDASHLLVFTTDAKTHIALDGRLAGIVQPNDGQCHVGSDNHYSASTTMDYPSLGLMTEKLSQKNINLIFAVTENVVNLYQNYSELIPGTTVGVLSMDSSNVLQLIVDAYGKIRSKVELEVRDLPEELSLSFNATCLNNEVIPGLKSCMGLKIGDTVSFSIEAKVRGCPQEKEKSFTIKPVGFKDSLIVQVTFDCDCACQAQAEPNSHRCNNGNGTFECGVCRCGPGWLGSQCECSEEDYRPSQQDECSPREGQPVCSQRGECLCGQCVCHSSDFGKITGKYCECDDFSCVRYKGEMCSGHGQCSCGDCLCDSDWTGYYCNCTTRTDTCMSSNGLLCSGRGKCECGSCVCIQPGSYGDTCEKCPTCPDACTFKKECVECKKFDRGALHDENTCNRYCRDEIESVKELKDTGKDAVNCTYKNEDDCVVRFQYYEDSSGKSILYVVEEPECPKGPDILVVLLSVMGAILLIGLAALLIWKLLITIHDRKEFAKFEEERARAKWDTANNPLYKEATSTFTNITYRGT

Substance Integrilin (peptide) displayed an IC50 (read off the curve), ADP-induced platelet aggregation (AIPA) in human PRP of 200 nM.

Source of the values: US20060183702A1.
